Experimental findings from a protein production outcome set (Wang et al. 2014) are described below.
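Further: failed if final PepcDB status was selected cloned or expressed and not failed if soluble or beyond.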

This data set in a line: label from the status in PepcDB records.
Turning to “MEIEYIKDYRDINQEDDTVLILGYFDGLHRGHKALFDKAREVANKEGLKVVVFTFTESPKLAFSRFSPELLLHITYPKKRYEKFADYGVNKLYLVDFTSKFSKVSSDHFITHYIKNLKAKHIVVGFDYKFGHNRTDSDYLTRNFEGQVYTIEEIKEDHRKISATWIRKLIQEGNVVKANHLLGYDLSTRGRVVHGDARGRTIGFPTANLAPIDNTYLPADGVYVTNVIVANKIYRSMTSLGKNVTFGGKELRLEVNIFDFDEEIYGEIIEIVWLDKIRDMEKFEGIEDLTDRLEYDKRTALNWKKDSKLS”, the protein production result was “failed”.

In the case of “SLTSKNQFYKPGMLVPVFSAAGLLKNGRYQFLLQQIETLSLLPTEQYAQLYEALVYRFVEFVQVLPIRLDEPLCSLMNEGLLRGVNSLNHYIQNHPEATPLERYALFSAGLLLEVAHAVVNQKIFITDEEGNFIKQWNPFSGPLIDDVETKHYKIMPLSSYYQRNIPSITPILVRQLLPDEGFLWLTSDMRVFSDWMQALRDDEGEGGGRFEHVLQLFKHKNIDGLFNTLPALPVNLQDSPATAHADAFLNWLKEALATNQIKVNTSDAGVHVIPEGVFLEKTGIFKQYIDLHVNVPVNLFTVYQQFGNLFGLTKLSGIDYRFEQLFSEYPDALKRKSKMGFAGLIGIRRASPTREGVLIADPNLIFTRGEIPSATSYLKLSSAQKSQNIPMT”, the protein production entry is on record as “not failed”.

Regarding “MINGNTSGLKEYILENLDKLYSTKIEKGKIINQEIVDYISEISNKINREINVAIDRNGNIIDISIGDSSTVNLPVIPVYDKKLSGVRIIHTHPSGNPHLSSVDISALIKLKLDCIVSIGVSEEGVTGYEVAICSIVNDELTYDRTLLENLDDFDYLEEIKEVEENLRKRNITEDDKEYALLIGIDKEEYLDELEELASACDVKVVGRFFQKRSKPDPLFLIGSGKIQELALTRQVRKVNLLIFDEELSGLQLKMIEEVTGCKVIDRTTLILEIFARRARTREAKLQVELAQLKYRSNRLIGFGVTMSRLGGGVGTKGPGEKKLEIDRRVIKKTIAYLNNELENIKKIRNTQRSKREDSGMPRVSLVGYTNVGKSTLRNVLVDMYQNDKTLKKEEVLSQDMLFATLDTTTRTIELKDKRIVSLTDTVGFIQKLPHDLVESFKSTLEEVIFSDLIIHVADISSKNVIEQIDAVEDVLEELNCLDKTKILLLNKIDNVTKDNSFPLMEKKIEEIKAKYSNYQILIISAKNRFNIDELMELIKKNLIVKTYNCKLLIPYVNTEIAARVHRNTIVKSESFVDEGIILEVVMNEKEYNKFKDFIFN”, the protein production entry is listed as “failed”.

On to “MDPSQFNPTYIPGSPQMLTEENSRDDSGASQISSETLIKNLSNLTINASSESVSPLSEALLRRESVGAAVLREIEDEWLYSRRGVRTLLSVQREKMARLRYMLLGGVRTHERRPTNKEPKGVKKESRPFKCPCSFCVSNGWDPSENARIGNQDTKPLQP”, for which the protein production entry was “failed”.

Consider “MKKVRFLLLAAMVAMFTGCQKEVAEQELDNNKPTPTGDTRIIIEGEGMIGPVTRSSDGKVEFEGGYATGAGLYNGDAQPKVAAHPDAGYEVNYFYGGPENELHRYDYAQSGSSTFDVKLKGEDHTFRCGFKEKKRNLTVNTGTGGSVSPAGTNSYRVEKAISITATPDSGYEFAGWTITEGDVTIENPGSPATTATLHNDNSTITANFKSGAELVFTVRASANKIVPMPVLGSGPYIIDYGDGTVAQEVDLRAPGYTQYPGSYHTYSADGEYTVTIKGPAATAFSFRGTRNSDLQYTNPCPAKSILKNTIDISCVTSLENAFSGMKSLESIKCDLFESCKGRVTTCANIFDQCTNLHTIYNGLFEGFDKCTDFSLAFHYTALNSIPANTFRGCSSAVKFNSTFSAIPNILSIPAGLFDDCVNAQEFASTFELLNISTVPERLFAKCVKATFFRGTFRQSHVTTVPGNVFENCRAIENVSSCFENCSWITSLPEMWNTSLYPKIKTYNAFAKNCNKASNYSAVPAAWK”, for which the protein production entry is reported as “failed”.

As to “MAYGKAHLEAQLKRALAEEIQALEDPRLFLLTVEAVRLSKDGSVLSVYVEAFREEEGALRALSRAERRLVAALARRVRMRRLPRLEFLPWRASPA”, the protein production entry is listed as “not failed”.

“MRYFSTDSPEVKTIVAQDSRLFQFIEIAGEVQLPTKPNPFQSLVSSIVEQQLSIKAASAIYGRVEQLVGGALEKPEQLYRVSDEALRQAGVSKRKIEYIRHVCEHVESGRLDFTELEGAEATTVIEKLTAIKGIGQWTAEMFMMFSLGRLDVLSVGDVGLQRGAKWLYGNGEGDGKKLLIYHGKAWAPYETVACLYLWKAAGTFAEEYRSLEELLHHGNQC”: the protein production result was “not failed”.

In the case of “MSFIVCMSVLGVLLMLLALTSSYLRWMPVTTSAVCLAFGFGIGPLGLDIINLDFKQSREWLECLTEVAVLFSLFGTGIKLRLPLNCKAWHSAYWLAGPVMLATIAGVSVAAHYIFAIDWGVALLLGAMLSPTDPVLAGMVQVNSAQDQDRLRFGLSGEAGLNDGTAFPFVIFAMLYLSSGGVTGDWAQHWLLKDLIWAVPAGLLIGFGMGRGVGHLMIFLRIKNADSTTSPNDFLALALIALAYVVAEGFGAFGFLSVFAAGFGLRQAEMRVTRSELPSEHVAQPVLGHMTAALDQGTVAKADDLSDSQLAAGVMMGDMLAFGSLVERAMEVLLITLLGAALASYWDWRAIGLGLALFCVIRPASVWLLVSQKLLNARQKALVGWFGIRGIGSLYYLCFALSHGLADDVGNVVIGMTLSVVALSILLHGISIQPLLERYERSTAANPDK”, the protein production result is reported as “failed”.

As for “MTPDSSVYKALLESTKAIPWKINWQTMAFEYIGPQIEALLGWPQGSWKSVEDWATRMHPEDQEWVVNFCVKQSECGVDHEADYRALHRDGHYVWIRDVVHVVRDDSGEVEALIGFMFDISLEHHHHHH”, the protein production entry is recorded as “not failed”.

As to “MSQTRDLQGGKAFGLLKAQQEERLDEINKQFLDDPKYSSDEDLPSKLEGFKEKYMEFDLNGNGDIDIMSLKRMLEKLGVPKTHLELKKLIGEVSSGSGETFSYPDFLRMMLGKRSAILKMILMYEEKAREKEKPTGPPAKKAISELP”, the protein production entry is “failed”.

Take “MTNLGDLEIFARVVSTGSMSAAGRALGFSAAVISKRIKRLEDRLGARLLQRTTRQISLTEAGQGFYDRVLGILAGLEEAEAYASGRSSQVQGTLRISAPTSFGRMHIAPHLTGFMKDHPDLKLHIVLTDDFTDIVAEGFDLAIRIGELSDSSLVARKLAPVRRLLCAAPSYVARHGAPTEIGELAKHICLPAHNNDNWKLEGPDGSLSYRPEGPLVTNSSEIIREAVIAGAGIALRSTWDIGRELREGRLVQVLPQWEGSHKLTLSAVYPSRQFLPAKVRQFIDYLAALYGPVPYWEQ”: the protein production result is on record as “failed”.

Regarding “MLKTPSDAAVAGCLSLLLEVSGNPKAGNVDREHDFDDLKFEHFLASAAGAFPAFLEVAEKRIIGEGVLRAVKESMRWHRAENVHFGAFLLLVPLISSWDAG”, the protein production entry is reported as “not failed”.

“MKVTNLFKDKVDAISAHQSEFMNWMSPTLRDYWSDFLGKAQNSFLFSNVRDHNQPAVNEEVAPQPAPIVLQPEAQKLYDELSGKIGEVIHTGDWVHVSQERINQFGAVTEDMQWIHTDPERASVESPFKTTIAHGFLTLALLPKLTDSVDADKPLFPTAKLVVNLGLNQVRFPYPVKAGNNVRAVSTLTKVTPIKKGLEIEREIKVEIEGVRRPGAVVVSVIQLHFLEHHHHHH”: the protein production result was “not failed”.

On to “MGGEASPRSLQDWRHVHNTIIPAHVLSLDDVRERAGRNRLEVAYLDDVLVGCSTVRPPADAPTPDAPATATVIARVLAAHRGRGFGGEMYERGLKHARALGAQVIETVVLSSNPDGLRFALKHGFAETERYLLPGDTVPWIDLRLSV”, for which the protein production result is “failed”.

“MDGVLKGFFVVSIVLLIGYILGKTKALGPEGSKVLSTLTFMVGLPCLMFSAIASRHINDVLSATGLISVVTAVAVMLVFTVAGTIARWGVRRTTIGALSVGIVNSTNLGVPLSLYILGSATYVTPIMLFQLAIVTPIALTILDLTDPAGKKVSVWRTLSIPFRNPVTVAAILGVLVSALGIQLPSLVLDPLALVAQLAVPLMLIIFGMSLHGLSVRPGIDDRVPTTIAVILKSAIQPVLAWVLAAFVFQLDPFSTFVVTACAILPTGQNVVLYSVRYGVGQGIAQSTAVFTSILAVPLLLGAAWLFG”: the protein production result is “failed”.

In the case of “RFEHGTVLAECLSPASPDTSCELLKRAAKFLAYVHGSDDPASGRIGGVRKEVRNEVRMWLRAVLPDEPSDGANELFEEWWALLEGIGLPPQPRRDAHAFNWLVTDNDRIIAVDLEAARWRPMGYELAQLT”, the protein production result is recorded as “failed”.
